# Experiments:
# [1] = target: HA of A/New Caledonia/20/1999 (influenza A virus A/New Caledonia/20/1999) (UniProt Q6WG00)
# [2] = target: HA of A/mallard/Alberta/35/1976 (influenza A virus A/mallard/Alberta/35/1976); experiment: BLI
substance,measurement,setting,value
C05 WT (antibody),"HAI, antibody concentration at the endpoint titer; virus A/New Caledonia/20/1999",[1],0.2 µg/mL
same,Kd,[2],511 nM
same,koff,[2],0.0021 s⁻¹
same,kon,[2],4100 M⁻¹ s⁻¹

# Source: PMC6358683
